Target: T1, Tra1 (S. cerevisiae, UniProt P38811 1-3744)
T1 construct: Tra1, S. cerevisiae, largest subunit of SAGA (433 kDa), endogenous subunit of the purified native complex; Subunit of native SAGA purified through a 3xFLAG tag; The complex was mildly cross-linked with glutaraldehyde (GraFix) before cryo-EM; also called Tra1 module; head; source: endogenous, S. cerevisiae, purified as part of native SAGA (anti-FLAG M2 resin, FLAG peptide elution, GraFix)
Assay: cryo-EM structure; native S. cerevisiae SAGA purified by anti-FLAG and GraFix (glycerol/glutaraldehyde gradient), 40 mM HEPES pH 7.4, 150 mM NaCl, 0.01% Tween-20, vitrified on lacey carbon grids with graphene oxide; consensus map 3.1 Å, Tra1 2.9 Å, core 3.2 Å; published models (PDB 6t9j, 6t9k) fitted into the map
Settings: both partners purified

T1 sequence (P38811 whole entry): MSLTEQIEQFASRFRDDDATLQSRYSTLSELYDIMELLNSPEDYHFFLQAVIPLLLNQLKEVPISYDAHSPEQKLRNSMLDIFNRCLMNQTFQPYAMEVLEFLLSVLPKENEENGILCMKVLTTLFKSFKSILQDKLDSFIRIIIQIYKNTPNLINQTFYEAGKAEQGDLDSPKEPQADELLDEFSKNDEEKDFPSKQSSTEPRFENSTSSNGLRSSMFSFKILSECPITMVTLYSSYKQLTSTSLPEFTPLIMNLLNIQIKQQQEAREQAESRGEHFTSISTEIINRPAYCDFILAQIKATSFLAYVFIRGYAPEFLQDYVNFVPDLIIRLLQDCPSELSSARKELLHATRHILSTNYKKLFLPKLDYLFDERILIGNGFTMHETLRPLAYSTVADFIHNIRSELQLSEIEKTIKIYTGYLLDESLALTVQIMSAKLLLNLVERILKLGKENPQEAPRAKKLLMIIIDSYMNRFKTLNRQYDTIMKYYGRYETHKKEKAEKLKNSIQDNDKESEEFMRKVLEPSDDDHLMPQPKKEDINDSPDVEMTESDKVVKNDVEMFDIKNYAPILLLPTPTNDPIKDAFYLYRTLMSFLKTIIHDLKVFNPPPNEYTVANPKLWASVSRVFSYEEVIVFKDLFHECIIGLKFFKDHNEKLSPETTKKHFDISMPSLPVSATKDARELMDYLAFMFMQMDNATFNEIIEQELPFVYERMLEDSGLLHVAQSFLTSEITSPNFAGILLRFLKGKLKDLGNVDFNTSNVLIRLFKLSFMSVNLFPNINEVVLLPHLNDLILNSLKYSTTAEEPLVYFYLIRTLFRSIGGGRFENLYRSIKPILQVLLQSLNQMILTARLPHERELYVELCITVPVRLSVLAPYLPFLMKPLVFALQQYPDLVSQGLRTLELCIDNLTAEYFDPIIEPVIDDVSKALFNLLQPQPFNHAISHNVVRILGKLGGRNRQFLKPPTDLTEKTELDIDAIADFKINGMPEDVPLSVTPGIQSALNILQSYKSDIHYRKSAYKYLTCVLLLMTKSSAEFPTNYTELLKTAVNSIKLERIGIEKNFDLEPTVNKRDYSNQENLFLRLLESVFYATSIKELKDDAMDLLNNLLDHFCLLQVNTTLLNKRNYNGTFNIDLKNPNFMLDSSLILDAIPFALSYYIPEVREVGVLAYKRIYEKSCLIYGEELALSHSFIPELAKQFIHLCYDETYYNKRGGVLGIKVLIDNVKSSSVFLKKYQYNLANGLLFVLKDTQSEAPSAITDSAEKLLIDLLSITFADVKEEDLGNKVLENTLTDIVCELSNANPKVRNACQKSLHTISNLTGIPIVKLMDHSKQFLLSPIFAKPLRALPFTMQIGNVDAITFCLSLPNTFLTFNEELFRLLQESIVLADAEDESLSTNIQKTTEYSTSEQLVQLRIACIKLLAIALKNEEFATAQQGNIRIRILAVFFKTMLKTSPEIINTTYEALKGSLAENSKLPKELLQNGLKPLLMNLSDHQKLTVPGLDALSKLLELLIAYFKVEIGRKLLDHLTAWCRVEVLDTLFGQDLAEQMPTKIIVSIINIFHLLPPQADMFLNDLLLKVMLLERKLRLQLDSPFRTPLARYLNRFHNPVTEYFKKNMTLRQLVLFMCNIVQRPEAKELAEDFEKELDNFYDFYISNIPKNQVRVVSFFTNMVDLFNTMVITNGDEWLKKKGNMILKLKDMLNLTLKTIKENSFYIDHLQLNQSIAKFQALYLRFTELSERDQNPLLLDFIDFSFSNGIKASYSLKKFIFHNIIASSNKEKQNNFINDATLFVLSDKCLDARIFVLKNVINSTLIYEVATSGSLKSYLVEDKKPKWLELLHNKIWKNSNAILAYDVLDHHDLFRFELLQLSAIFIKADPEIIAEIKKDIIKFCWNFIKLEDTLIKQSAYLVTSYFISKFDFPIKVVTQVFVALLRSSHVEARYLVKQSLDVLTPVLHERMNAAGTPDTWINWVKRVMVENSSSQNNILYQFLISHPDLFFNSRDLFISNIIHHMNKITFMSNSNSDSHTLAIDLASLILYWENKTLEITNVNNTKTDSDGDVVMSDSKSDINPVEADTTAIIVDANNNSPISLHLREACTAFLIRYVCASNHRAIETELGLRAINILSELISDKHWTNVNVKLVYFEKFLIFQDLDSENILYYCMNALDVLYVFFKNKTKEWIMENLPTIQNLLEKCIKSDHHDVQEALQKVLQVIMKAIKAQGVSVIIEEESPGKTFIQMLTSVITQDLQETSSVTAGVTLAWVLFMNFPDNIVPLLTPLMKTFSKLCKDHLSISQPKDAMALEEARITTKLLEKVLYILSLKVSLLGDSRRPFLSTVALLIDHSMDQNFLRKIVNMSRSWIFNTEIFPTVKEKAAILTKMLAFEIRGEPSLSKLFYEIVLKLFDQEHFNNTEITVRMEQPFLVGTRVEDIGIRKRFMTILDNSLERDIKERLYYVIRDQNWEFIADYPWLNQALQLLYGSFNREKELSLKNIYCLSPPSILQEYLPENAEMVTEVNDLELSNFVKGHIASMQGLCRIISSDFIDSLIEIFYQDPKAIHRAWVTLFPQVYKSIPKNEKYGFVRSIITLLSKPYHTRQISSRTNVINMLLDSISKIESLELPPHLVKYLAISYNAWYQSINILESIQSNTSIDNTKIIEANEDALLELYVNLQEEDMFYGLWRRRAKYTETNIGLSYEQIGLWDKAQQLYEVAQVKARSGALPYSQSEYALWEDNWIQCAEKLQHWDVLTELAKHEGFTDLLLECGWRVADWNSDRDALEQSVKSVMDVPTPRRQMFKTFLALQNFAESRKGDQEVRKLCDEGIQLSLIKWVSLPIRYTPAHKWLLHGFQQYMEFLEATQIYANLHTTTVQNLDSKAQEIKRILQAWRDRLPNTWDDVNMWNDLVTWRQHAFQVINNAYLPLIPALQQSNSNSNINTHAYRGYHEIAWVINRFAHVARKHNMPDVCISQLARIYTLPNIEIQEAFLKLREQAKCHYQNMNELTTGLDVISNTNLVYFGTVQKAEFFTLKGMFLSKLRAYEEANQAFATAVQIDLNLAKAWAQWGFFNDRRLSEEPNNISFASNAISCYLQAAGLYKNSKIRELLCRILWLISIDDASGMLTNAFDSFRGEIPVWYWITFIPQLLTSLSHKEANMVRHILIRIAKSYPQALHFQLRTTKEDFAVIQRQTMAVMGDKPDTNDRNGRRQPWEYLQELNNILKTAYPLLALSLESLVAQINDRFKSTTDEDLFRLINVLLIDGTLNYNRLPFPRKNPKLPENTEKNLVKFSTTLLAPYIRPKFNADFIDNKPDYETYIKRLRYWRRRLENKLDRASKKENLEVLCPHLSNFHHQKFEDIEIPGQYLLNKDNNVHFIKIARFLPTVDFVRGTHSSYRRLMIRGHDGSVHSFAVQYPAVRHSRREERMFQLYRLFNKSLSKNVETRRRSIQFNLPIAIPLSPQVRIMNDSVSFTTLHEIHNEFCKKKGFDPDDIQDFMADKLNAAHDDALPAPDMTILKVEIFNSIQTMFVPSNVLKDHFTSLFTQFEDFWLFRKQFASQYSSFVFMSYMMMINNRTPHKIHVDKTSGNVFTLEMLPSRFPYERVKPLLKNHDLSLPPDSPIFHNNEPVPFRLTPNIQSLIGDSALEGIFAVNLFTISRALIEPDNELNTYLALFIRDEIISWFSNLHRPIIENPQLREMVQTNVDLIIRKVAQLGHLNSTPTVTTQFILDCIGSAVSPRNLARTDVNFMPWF

| binding result | Binder |
| --- | --- |
| binds | Spt20 (natural protein, S. cerevisiae, UniProt P50875 1-604, looked up, Spt20, S. cerevisiae, subunit of the SAGA core module, endogenous subunit of the purified native complex; Subunit of native SAGA purified through a 3xFLAG tag; The complex was mildly cross-linked with glutaraldehyde (GraFix) before cryo-EM; also called Spt20 core subunit; source: endogenous, S. cerevisiae, purified as part of native SAGA (anti-FLAG M2 resin, FLAG peptide elution, GraFix)) MSANSPTGNDPHVFGIPVNATPSNMGSPGSPVNVPPPMNPAVANVNHPVMRTNSNSNANEGTRTLTREQIQQLQQRQRLLLQQRLLEQQRKQQALQNYEAQFYQMLMTLNKRPKRLYNFVEDADSILKKYEQYLHSFEFHIYENNYKICAPANSRLQQQQKQPELTSDGLILTKNNETLKEFLEYVARGRIPDAIMEVLRDCNIQFYEGNLILQVYDHTNTVDVTPKENKPNLNSSSSPSNNNSTQDNSKIQQPSEPNSGVANTGANTANKKASFKRPRVYRTLLKPNDLTTYYDMMSYADNARFSDSIYQQFESEILTLTKRNLSLSVPLNPYEHRDMLEETAFSEPHWDSEKKSFIHEHRAESTREGTKGVVGHIEERDEFPQHSSNYEQLMLIMNERTTTITNSTFAVSLTKNAMEIASSSSNGVRGASSSTSNSASNTRNNSLANGNQVALAAAAAAAAVGSTMGNDNNQFSRLKFIEQWRINKEKRKQQALSANINPTPFNARISMTAPLTPQQQLLQRQQQALEQQQNGGAMKNANKRSGNNATSNNNNNNNNLDKPKVKRPRKNAKKSESGTPAPKKKRMTKKKQSASSTPSSTTMS |
| binds | Taf12 (natural protein, S. cerevisiae, UniProt Q03761 1-539, looked up, Taf12, S. cerevisiae, subunit of the SAGA core module, endogenous subunit of the purified native complex; Subunit of native SAGA purified through a 3xFLAG tag; The complex was mildly cross-linked with glutaraldehyde (GraFix) before cryo-EM; also called Taf12 core subunit; source: endogenous, S. cerevisiae, purified as part of native SAGA (anti-FLAG M2 resin, FLAG peptide elution, GraFix)) MSSNPENSGVNANNNTGTGNADAITGAQQNMVLQPRQLQEMAAKFRTLLTEARNVGETTPRGKELMFQAAKIKQVYDALTLNRRRQQAAQAYNNTSNSNSSNPASIPTENVPNSSQQQQQQQQQTRNNSNKFSNMIKQVLTPEENQEYEKLWQNFQVRHTSIKEKETYLKQNIDRLEQEINKQTDEGPKQQLQEKKIELLNDWKVLKIEYTKLFNNYQNSKKTFYVECARHNPALHKFLQESTQQQRVQQQRVQQQQQQQQQQQQQQQQQQQQQQQRQGQNQRKISSSNSTEIPSVTGPDALKSQQQQQNTITATNNPRGNVNTSQTEQSKAKVTNVNATASMLNNISSSKSAIFKQTEPAIPISENISTKTPAPVAYRSNRPTITGGSAMNASALNTPATTKLPPYEMDTQRVMSKRKLRELVKTVGIDEGDGETVIDGDVEELLLDLADDFVTNVTAFSCRLAKHRKSDNLEARDIQLHLERNWNIRIPGYSADEIRSTRKWNPSQNYNQKLQSITSDKVAAAKNNGNNVASLNTKK |
